Data taken from the supplement of paper PMC7877785.
± gives the uncertainty stated by the source.

Experiment: self-splicing fitness, log relative to wild type (ln ratio); higher = more splicing; Tetrahymena group I intron in knt gene, E. coli kanamycin selection, DiMSum; sequences stand for … in CUCUCU…GGAGGGAAAAGUUAUCAGGCAUGCACCUGGUAGCUAGUCUUUAAACCAAUAGAUUGCAUCGGUUUAAAAGGCAAGACCGUCAAAUUGCGGGAAAGGGGUCAACAGCCGUUCAGUACCAAGUCUCAGGGGAAACUUUGAGAUGGCCUUGCAAAGGGUAUGGUAAUAAGCUGACGGACAUGGUCCUAACCACGCAGCCAAGUCCUAAGUCAACAGAUCUUCUGUUGAUAUGGAUGCAGUUCACAGACUAAAUGUCGGUCGGGGAAGAUGUAUUCUUCUCAUAAGAUAUAGUCGGACCUCUCCUUAAUGGGAGCUAGCGGAUGAAGUGAUGCAACACUGGAGCCGCUGGGAACUAAUUUGUAUGCGAAAGUAUAUUGAUUAGUUUUGGAGUACUCGUGGUCG
Method in brief: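 A randomised library covering all eight P1ex-region intron nucleotides was built with the intron in the knt kanamycin-resistance gene on pET-22b(+) and held in E. coli BL21(DE3). Cells were grown overnight at 37°C or 30°C on LB agar, with or without 25 μg/mL kanamycin, plus 100 μg/mL carbenicillin, 50 μM IPTG and 0.2% rhamnose, and pooled colonies were amplicon-sequenced on an Illumina HiSeq 2500. DiMSum fitness is the error-weighted combination of wild-type-normalised replicate fold changes, kanamycin versus none.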

| Sequence | self-splicing fitness (ln) (30 °C) | self-splicing fitness (ln) (37 °C) |
| --- | --- | --- |
| AAUAAGCAAUAUUACGGUCG | -1.03 ± 0.098 | -0.232 ± 0.12 |
| AAUAAGCAAUAUUACGUGGU | -3.77 ± 0.17 | -2.63 ± 0.14 |
| AAUAAGCAAUAUUACGUUCA | -0.963 ± 0.084 | -0.348 ± 0.12 |
| AAUCAGCAAUAUUACGAAAC | -1.97 ± 0.19 | -0.858 ± 0.16 |
| AAUCAGCAAUAUUACGACAC | -0.56 ± 0.12 | -1.46 ± 0.15 |
| AAUCAGCAAUAUUACGACCC | 0.168 ± 0.15 | -0.615 ± 0.16 |
| AAUCAGCAAUAUUACGACUA | 0.113 ± 0.14 | -0.783 ± 0.12 |
| AAUCAGCAAUAUUACGAGAG | -1.82 ± 0.15 | -1.13 ± 0.13 |
| AAUCAGCAAUAUUACGAGUC | -2.05 ± 0.11 | -1.21 ± 0.11 |
| AAUCAGCAAUAUUACGAUCU | 0.0008 ± 0.059 | 0.914 ± 0.088 |
| AAUCAGCAAUAUUACGAUGC | -0.408 ± 0.076 | 0.219 ± 0.096 |
| AAUCAGCAAUAUUACGCAAG | -0.971 ± 0.068 | -0.72 ± 0.087 |
| AAUCAGCAAUAUUACGCCCG | -0.416 ± 0.14 | -0.489 ± 0.16 |
| AAUCAGCAAUAUUACGCCUC | -1.12 ± 0.13 | -0.226 ± 0.17 |
| AAUCAGCAAUAUUACGCGCU | -1.16 ± 0.075 | -0.732 ± 0.084 |
| AAUCAGCAAUAUUACGCUCG | -0.0659 ± 0.091 | -0.114 ± 0.12 |
| AAUCAGCAAUAUUACGGAUA | -0.0268 ± 0.069 | 0.49 ± 0.086 |
| AAUCAGCAAUAUUACGGAUG | -0.144 ± 0.066 | 0.153 ± 0.085 |
| AAUCAGCAAUAUUACGGCAA | -0.417 ± 0.074 | 0.747 ± 0.091 |
| AAUCAGCAAUAUUACGGCUC | -0.84 ± 0.082 | 0.535 ± 0.097 |
| AAUCAGCAAUAUUACGGGAG | -1.48 ± 0.054 | -0.88 ± 0.068 |
| AAUCAGCAAUAUUACGGGAU | -1.45 ± 0.08 | -1.34 ± 0.087 |
| AAUCAGCAAUAUUACGGUCC | -0.242 ± 0.085 | -0.118 ± 0.1 |
| AAUCAGCAAUAUUACGUAGA | -0.378 ± 0.071 | -0.124 ± 0.089 |

| Sequence | self-splicing fitness (ln) (30 °C) | self-splicing fitness (ln) (37 °C) |
| --- | --- | --- |
| AAUCAGCAAUAUUACGUAUG | -0.407 ± 0.079 | 0.138 ± 0.11 |
| AAUCAGCAAUAUUACGUCUC | -0.509 ± 0.091 | -0.314 ± 0.093 |
| AAUCAGCAAUAUUACGUUGA | -0.828 ± 0.086 | -0.22 ± 0.1 |
| AAUGAGCAAUAUUACGAACG | -2.46 ± 0.31 | -1.74 ± 0.3 |
| AAUGAGCAAUAUUACGAAUC |  | -1.74 ± 0.3 |
| AAUGAGCAAUAUUACGACUG | -3.77 ± 0.28 | -0.811 ± 0.19 |
| AAUGAGCAAUAUUACGAGUU | -3.21 ± 0.28 | -1.8 ± 0.31 |
| AAUGAGCAAUAUUACGAUCU | -0.572 ± 0.074 | -0.195 ± 0.1 |
| AAUGAGCAAUAUUACGCAAG | -3.81 ± 0.27 | -2.45 ± 0.38 |
| AAUGAGCAAUAUUACGCGAA | -3.05 ± 0.18 | -2.7 ± 0.22 |
| AAUGAGCAAUAUUACGCGUG | -2.11 ± 0.11 | -0.949 ± 0.1 |
| AAUGAGCAAUAUUACGGACA | -2.93 ± 0.45 |  |
| AAUGAGCAAUAUUACGGCAC | -2.9 ± 0.28 | -1.27 ± 0.32 |
| AAUGAGCAAUAUUACGGCUC | -1.82 ± 0.23 | -2.03 ± 0.38 |
| AAUGAGCAAUAUUACGGCUU | -1.85 ± 0.19 | -1.19 ± 0.18 |
| AAUGAGCAAUAUUACGGGAA | -2.61 ± 0.26 | -3.04 ± 0.33 |
| AAUGAGCAAUAUUACGGGAC | -2.96 ± 0.26 | -1.36 ± 0.25 |
| AAUGAGCAAUAUUACGGGGG | -4.09 ± 0.42 | -1.32 ± 0.25 |
| AAUGAGCAAUAUUACGGUUU | -2.13 ± 0.097 | -0.543 ± 0.11 |
| AAUGAGCAAUAUUACGUAGU | -3.83 ± 0.22 | -2.22 ± 0.21 |
| AAUGAGCAAUAUUACGUCUG | -2.92 ± 0.15 | -3 ± 0.21 |
| AAUGAGCAAUAUUACGUGAG | -3.5 ± 0.23 | -1.78 ± 0.14 |
| AAUGAGCAAUAUUACGUGCA | -2.95 ± 0.22 | -0.932 ± 0.14 |
| AAUGAGCAAUAUUACGUGCU | -3.93 ± 0.36 | -2.44 ± 0.25 |
